Data reported in publication PMC6738421, “Beta-amyloid induces apoptosis of neuronal cells by inhibition of the Arg/N-end rule pathway proteolytic activity” (Aging (Albany NY), 2019).

Target: T1, Beta-amyloid peptide Aβ42
T1 construct: beta-amyloid peptide 1-42, a stretch of the amyloid precursor protein; free N-terminus [H2N] and C-terminus [COOH] as printed; Monomerised with HFIP and dissolved in DMSO; for the ITC kinetics treated with 10% NH4OH, lyophilised and resuspended in reaction buffer; source: synthetic peptide, bought: Biopeptide
Test: ELISA; sandwich ELISA: Aβ42 (1 μM) captured on immobilised anti-Aβ1-17 antibody, Ate1 added for 90 min at 37°C (30 mM KCl, 5 mM MgCl2, 15 μM Arg, 1 mM ATP, 50 mM Hepes pH 7.5), read by loss of the anti-Aβ36-42 detection antibody signal (OD450); without tRNA
Conditions: both partners purified

B1: Arginyl-tRNA-protein transferase Ate1, isoform Ate1-1 (enzyme, mouse, UniProt Q9Z2A5-1 1-516, looked up)
chain: MASWSAPSPSLVEYFEGQTSFQCGYCKNKLGSRSYGMWAHSMTVQDYQDLIDRGWRRSGKYVYKPVMDQTCCPQYTIRCHPLQFQPSKSHKKVLKKMLKFLAKGEISKGNCEDEPMDSTVEDAVDGDFALINKLDIKCDLKTLSDLKGSIESEEKEKEKSIKKEGSKEFIHPQSIEEKLGSGEPSHPIKVHIGPKPGKGADLSKPPCRKAREMRKERQRLKRMQQASAAASEAQGQPVCLLPKAKSNQPKSLEDLIFQSLPENASHKLEVRVVRSSPPSPQFRATFQESYQVYKRYQMVVHKDPPDKPTVSQFTRFLCSSPLEAEHPADGPECGYGSFHQQYWLDGKIIAVGVLDILPYCVSSVYLYYDPDYSFLSLGVYSALREIAFTRQLHEKTSQLSYYYMGFYIHSCPKMRYKGQYRPSDLLCPETYVWVPIEQCLPSLDNSKYCRFNQDPEAEDEGRSKELDRLRVFHRRSAMPYGVYKNHQEDPSEEAGVLEYANLVGQKCSERMLLFRH
notes: mouse arginyl-tRNA-protein transferase Ate1, isoform Ate1-1; untagged after cleavage; also called R-transferase Ate1; arginyltransferase Ate1; source: E. coli Rosetta(DE3)pLysS, purified (Ni-NTA, Ub moiety cleaved with Usp2-cc, second Ni-NTA)
B1: binds.

B2: Arginyl-tRNA-protein transferase Ate1, isoform Ate1-3 (enzyme, mouse, UniProt Q9Z2A5-3 1-509, looked up)
chain: MASVVEYKGLKAGYYCGYCESREGKTSCGMWAHSMTVQDYQDLIDRGWRRSGKYVYKPVMDQTCCPQYTIRCHPLQFQPSKSHKKVLKKMLKFLAKGEISKGNCEDEPMDSTVEDAVDGDFALINKLDIKCDLKTLSDLKGSIESEEKEKEKSIKKEGSKEFIHPQSIEEKLGSGEPSHPIKVHIGPKPGKGADLSKPPCRKAREMRKERQRLKRMQQASAAASEAQGQPVCLLPKAKSNQPKSLEDLIFQSLPENASHKLEVRVVRSSPPSPQFRATFQESYQVYKRYQMVVHKDPPDKPTVSQFTRFLCSSPLEAEHPADGPECGYGSFHQQYWLDGKIIAVGVLDILPYCVSSVYLYYDPDYSFLSLGVYSALREIAFTRQLHEKTSQLSYYYMGFYIHSCPKMRYKGQYRPSDLLCPETYVWVPIEQCLPSLDNSKYCRFNQDPEAEDEGRSKELDRLRVFHRRSAMPYGVYKNHQEDPSEEAGVLEYANLVGQKCSERMLLFRH
notes: untagged after cleavage; also called R-transferase Ate1; arginyltransferase Ate1; source: E. coli Rosetta(DE3)pLysS, purified (Ni-NTA, Ub moiety cleaved with Usp2-cc, second Ni-NTA)
B2: binds.
